This note sets out measurements from patent publication US20250163116A1, “NEW METHOD TO TREAT INFECTIOUS DISEASES” (INSERM (INSTITUT NATIONAL DE LA SANTÉ ET DE LA RECHERCHE …, priority 2022, published 2025).

Assay [1] relates to HDMECs infected with S. pneumoniae TIGR4. As to the kind of experiment: Integrity of HDMECs infected with S. pneumoniae. The format is cell-based, human. Particulars: 1 μg/mL for 2 h after 30 min infection. As to the method: FIG. 6: ANGPTL4 protects dermal microvascular endothelial cells from infection by S. pneumoniae. HDMECs were infected with S. pneumoniae TIGR4 for 30 min and treated with 1 μg/mL of recombinant human ANGPTL4 for 2 h. Cells were fixed and stained for cellular actin, VE-cadherin and DAPI and analyzed by fluorescent microscopy. Quantifications of VE-cadherin enrichment at intercellular junctions was performed on 30 fields with Image J software. Kruskal-Wallis test *** P<0.0001.
To address whether ANGPTL-4 could also provide vascular protection from Gram-positive bacteria, we investigated the effect of ANGPTL-4 on HDMECs exposed to infection by the Gram-positive bacterium Streptococcus pneumoniae, one of the major causative agents of pneumonia, sepsis, meningitis and other morbidities.

Assay [2] relates to SCID mice grafted with human skin infected with Nm 2C4.3. As to the kind of experiment: Outcome of meningococcal infection in SCID mice grafted with human skin (survival, with or without antibiotics). In kind it is in vivo. As to the method:
A-D, SCID mice grafted with human skin were infected intravenously with Nm 2C4.3 wild-type strain (5×10^6 bacteria); 2 h after bacterial challenge, mice received recombinant human ANGPTL4 (1 μg, intravenously), cefotaxime (200 mg kg-1, intraperitoneally) alone or in combination with ANGPTL4 or vehicle as a control. 18 h following bacterial challenge, ANGPTL4 (1 μg) and cefotaxime (200 mg kg-1) were re-administered. This experiment was performed twice with n=3 or 4 mice per group, using skin from two different donors. A, A schematic representation of the protocol used in vivo. B, Bacteraemia 4, 18, 48 and 72 h post-infection (mean±s.e.m.). C, Survival curve: * P=0.0275; two-sided log-rank Mantel-Cox survival analysis. D, Thrombosis within the skin grafts at 4 h post-infection was assessed by immunofluorescence analysis and quantified as described in FIG. 8 (error bars show mean±s.e.m.; 40 vessels per mouse were analysed; n=4 mice per group; *** P<0.001; two-tailed Student's t-test.
Six-week-old CB17/Icr-Prkdcscid female mice were obtained from Janvier Labs. Human skin tissues were obtained from adult patients undergoing plastic surgery in the Service de Chirurgie Plastique et Reconstructive of the Groupe Hospitalier Saint-Joseph. […] Experimental procedures were performed as previously described in accordance with the guidelines of the Institut National de la Santé et de la Recherche Médicale and conformed to the European ethical legislation (Directive 2010/63/EU). The experimental protocol was approved by the Animal Experimentation Ethics Committee of the Université Paris Descartes (consent forms CEEA34.O.J.L.039.12 and 2018012515596498). […] A skin flap was created and a full thickness human skin graft was placed onto the wound bed. The transplants were held in place with 6-0 non-absorbable monofilament suture materials, and the flap was then sutured above the transplant. Grafted mice were infected 4-6 weeks after human skin transplantation. N. meningitidis was grown overnight at 37° C. on GCB agar plates prepared without iron and supplemented with 15 μM deferoxamine (Desferal, Novartis). Bacterial colonies were harvested and cultured in RPMI media with 1% BSA medium and 0.06 μM deferoxamine with gentle agitation to reach the exponential phase of growth. Bacteria were then resuspended in physiological saline solution. Mice were infected intravenously with 200 μl (5×10^6 bacteria) of this bacterial suspension. A 10 mg dose of human holotransferrin (R&D Systems) was administered intraperitoneally just before infection. Mice were killed at 4 h after infection. Human skin grafts were carefully collected using a sterile cutter. The tissue was washed in PBS and fixed overnight at 4° C. in 4% paraformaldehyde in phosphate buffer. After washing in phosphate buffer, the specimens were embedded in OCT medium and then frozen at −80° C. Sections of the dermis (7 μm thick) were immobilized on Superfrost Plus microscope slides and subjected to immunofluorescence analysis. Sections were incubated with the primary antibodies for 1 h in PBS/3% BSA then DAPI was added to Alexa-conjugated secondary antibodies for 1 h. After additional washing, coverslips were mounted in glycergel (Dako) and were further analysed using a slide scanner (Lamina, Perkin Elmer). Analysis of the images was performed using ImageJ software (NIH). […]
We then analysed whether ANGPTL4 could provide a beneficial effect when administered with antibiotics.

B1: ANGPTL4: Recombinant human ANGPTL4 (Angiopoietin-like 4), full length, SEQ ID NO: 1, purchased from R&D Systems (protein, listed as Homo sapiens)
chain: MSGAPTAGAALMLCAATAVLLSAQGGPVQSKSPRFASWDEMNVLAHGLLQLGQGLREHAERTRSQLSALERRLSACGSACQGTEGSTDLPLAPESRVDPEVLHSLQTQLKAQNSRIQQLFHKVAQQQRHLEKQHLRIQHLQSQFGLLDHKHLDHEVAKPARRKRLPEMAQPVDPAHNVSRLHRLPRDCQELFQVGERQSGLFEIQPQGSPPFLVNCKMTSDGGWTVIQRRHDGSVDFNRPWEAYKAGFGDPHGEFWLGLEKVHSITGDRNSRLAVQLRDWDGNAELLQFSVHLGGEDTAYSLQLTAPVAGQLGATTVPPSGLSVPFSTWDQDHDLRRDKNCAKSLSGGWWFGTCSHSNLNGQYFRSIPQQRQKLKKGIFWKTWRGRYYPLQATTMLIQPMAAEAAS
For the molecule B1, in assay [1], the “endothelial integrity (cell junction organization) upon S. pneumoniae infection” value was “preserved endothelial integrity”. In assay [2] (1 μg/mouse i.v., 2 h post-infection, all control mice died), the “mice surviving the infection” value amounted to 15%. The “signs of thrombosis and vascular leakage in human dermal vessels of grafts” value in assay [2] (at the time of death, data not shown) is “reduced signs of thrombosis and vascular leakage”.
